# Measurements reported in IntAct's records for PubMed 29374162.
# B1: Interleukin-3 receptor subunit alpha (Homo sapiens), P26951-1 (parent)
# chain: MVLLWLTLLLIALPCLLQTKEDPNPPITNLRMKAKAQQLTWDLNRNVTDIECVKDADYSMPAVNNSYCQFGAISLCEVTNYTVRVANPPFSTWILFPENSGKPWAGAENLTCWIHDVDFLSCSWAVGPGAPADVQYDLYLNVANRRQQYECLHYKTDAQGTRIGCRFDDISRLSSGSQSSHILVRGRSAAFGIPCTDKFVVFSQIEILTPPNMTAKCNKTHSFMHWKMRSHFNRKFRYELQIQKRMQPVITEQVRDRTSFQLLNPGTYTVQIRARERVYEFLSAWSTPQRFECDQEEGANTRAWRTSLLIALGTLLALVCVFVICRRYLVMQRLFPRIPHMKDPIGDSFQNDKLVVWEAGKAGLEECLVTEVQVVQKT
# partner: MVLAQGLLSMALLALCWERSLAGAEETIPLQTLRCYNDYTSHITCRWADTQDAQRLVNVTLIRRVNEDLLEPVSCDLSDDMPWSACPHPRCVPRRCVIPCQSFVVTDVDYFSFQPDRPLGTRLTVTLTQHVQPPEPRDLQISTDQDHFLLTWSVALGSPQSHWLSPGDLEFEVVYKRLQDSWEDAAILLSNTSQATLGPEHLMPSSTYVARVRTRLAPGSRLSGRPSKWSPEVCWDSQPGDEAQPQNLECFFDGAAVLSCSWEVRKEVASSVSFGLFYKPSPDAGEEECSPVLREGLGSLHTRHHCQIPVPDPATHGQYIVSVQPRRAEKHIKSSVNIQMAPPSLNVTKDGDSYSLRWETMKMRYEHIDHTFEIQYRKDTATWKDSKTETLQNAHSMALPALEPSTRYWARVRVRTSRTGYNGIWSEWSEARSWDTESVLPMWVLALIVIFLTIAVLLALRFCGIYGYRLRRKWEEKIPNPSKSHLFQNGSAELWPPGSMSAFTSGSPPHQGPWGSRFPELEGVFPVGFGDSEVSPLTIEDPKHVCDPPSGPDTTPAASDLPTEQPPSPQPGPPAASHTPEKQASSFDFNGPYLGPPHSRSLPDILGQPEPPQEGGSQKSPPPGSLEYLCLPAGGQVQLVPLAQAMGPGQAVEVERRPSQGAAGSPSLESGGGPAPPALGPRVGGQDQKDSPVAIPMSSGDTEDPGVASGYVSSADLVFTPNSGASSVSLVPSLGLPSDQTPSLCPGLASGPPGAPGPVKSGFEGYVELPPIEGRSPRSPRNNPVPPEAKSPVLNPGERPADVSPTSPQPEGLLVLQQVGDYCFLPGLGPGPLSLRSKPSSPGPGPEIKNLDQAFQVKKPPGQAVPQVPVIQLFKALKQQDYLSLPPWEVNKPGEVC
# Variants of: B1
# Details: with il3rb_human CSF2RB
row,Variant,effect of a mutation on the interaction
1,MVLLWLTLLLIALPCLLQTKEDPNPPITNLRMKAKAQQLTWDLNRNVTDIECVKDADYSMPAVNNSYCQFGAISLCEVTNYTVRVANPPFSTWILFPENSGKPWAGAENLTCWIHDVDFLSCSWAVGPGAPADVQYDLYLNVANRRQQYECLHYKTDAQGTRIGCRFDDISRLSSGSQSSHILVRGRSAAFGIPCTLKFVVFSQIEILTPPNMTAKCNKTHSFMHWKMRSHFNRKFRYELQIQKRMQPVITEQVRDRTSFQLLNPGTYTVQIRARERVYEFLSAWSTPQRFECDQEEGANTRAWRTSLLIALGTLLALVCVFVICRRYLVMQRLFPRIPHMKDPIGDSFQNDKLVVWEAGKAGLEECLVTEVQVVQKT [D197L],with no effect
2,MVLLWLTLLLIALPCLLQTKEDPNPPITNLRMKAKAQQLTWDLNRNVTDIECVKDADYSMPAVNNSYCQFGAISLAEVTNYTVRVANPPFSTWILFPENSGKPWAGAENLTCWIHDVDFLSCSWAVGPGAPADVQYDLYLNVANRRQQYECLHYKTDAQGTRIGCRFDDISRLSSGSQSSHILVRGRSAAFGIPATDKFVVFSQIEILTPPNMTAKCNKTHSFMHWKMRSHFNRKFRYELQIQKRMQPVITEQVRDRTSFQLLNPGTYTVQIRARERVYEFLSAWSTPQRFECDQEEGANTRAWRTSLLIALGTLLALVCVFVICRRYLVMQRLFPRIPHMKDPIGDSFQNDKLVVWEAGKAGLEECLVTEVQVVQKT [C76A;C195A],with no effect
